Reference: PMC3285688, “Active Site Mutations Change the Cleavage Specificity of Neprilysin” (PLoS ONE, 2012)
“And” between values parts separate entries of the source, which are not always exact repeats. Identical values can stand only once.

Columns and labels:
NEP [1] = assay: Degradation of peptide substrates by NEP: extent and cleavage sites (HPLC, mass spectrometry)
Procedure: Degradation of insulin B chain by wild-type NEP was analyzed by reverse-phase HPLC following the appearance of each product as a function of time, Figure 1 . Product peaks were collected and subsequently analyzed by mass spectrometry to determine their identities. […] Based on the order of appearance of each peak, it is likely that insulin B chain1–10, insulin B chain1–11, insulin B chain1–14 and its partner peak insulin B chain15–30, insulin B chain17–30, and insulin B chain24–30 are all products of primary cleavages. These products appear at the first time point when approximately 15% hydrolysis of insulin B chain had occurred (30 minutes). At 30% hydrolysis (90 min.), peaks corresponding to insulin B chain1–5 and insulin B chain17–24 are observed. Peaks for insulin B chain1–16 and insulin B chain15–23 become apparent at >30% insulin B chain hydrolysis. […] It is likely that these are transient products that are subsequently cleaved contributing to other product peaks (i.e. insulin B chain24–30).
To further study the effect of mutations on cleavage site specificity, time course assays were also performed for the hydrolysis of the physiological substrate Aß1–40. Like the analysis of insulin B chain, a time course assay was first done with NEP to identify cleavage products, Figure 3 and Table 6 . After 15% hydrolysis of Aß1–40 (150 min.) by NEP there were six discernable product peaks corresponding to Aß1–16, Aß1–17, Aß10–17, Aß20–28, Aß20–29, and Aß20–30. […]
Cleavage of physiological peptides was measured via reverse phase high performance liquid chromatography (HPLC) following incubation of the purified NEP or its mutants with 15 µM insulin B chain (Sigma Aldrich), 24 µM Aß1–40 (Anaspec), or 64 µM leu-ENK (Sigma) in 100 µL of 20 mM MES, pH 6.5, at 37°C. […] Peptides and hydrolysis products were detected at 214 nm and quantified by measuring peak areas. Peptides obtained from HPLC were analyzed on an Applied Biosystems 4800 MALDI TOF/TOF Proteomics Analyzer at the University of Kentucky Proteomics core. […]

NEP [2] = conditions: cited from earlier work
Text: Two other studies have identified NEP cleavage sites within Aß1–40 [25], [26].

[3] = system: NEP and each of the studied mutants; assay: Inhibition of Glut-Ala-Ala-Phe-MNA hydrolysis by NEP inhibitors; format: biochemical, human
Procedure: Reactions of 400 µl contained 100 µM Glut-Ala-Ala-Phe-MNA, 1 µg of aminopeptidase and 15 to 100 ng of NEP or mutant NEP depending on their activity in 20 mM MES buffer, pH 6.5. Activity was monitored with a Spectra Max Gemini XS plate reader using an excitation wavelength of 340 nm and an emission wavelength of 425 nm.

insulin B chain [4] = assay: Dual substrate assay: insulin B chain hydrolysis in presence of leu-ENK; format: biochemical; conditions: 15 µM insulin B chain and 64 µM leu-ENK together, 37°C, 20 mM MES buffer, pH 6.5
insulin B chain [5] = assay: Rate of insulin B chain hydrolysis (HPLC); format: biochemical; conditions: 15 µM insulin B chain, 37°C, 20 mM MES buffer, pH 6.5; disappearance of substrate by HPLC; at least triplicate
Aß1–40 [6] = assay: Rate of Aß1–40 hydrolysis (HPLC); format: biochemical; conditions: 24 µM Aß1–40, 37°C, 20 mM MES buffer, pH 6.5; disappearance of substrate by HPLC; at least triplicate
[7] = system: leu-ENK and insulin B chain; assay: Dual substrate assay: substrate preference leu-ENK versus insulin B chain; format: biochemical; conditions: ratio of rates, 15 µM insulin B chain and 64 µM leu-ENK together
[8] = Hydrolysis of synthetic substrate Glut-Ala-Ala-Phe-MNA by NEP and mutants (fluorogenic); format: biochemical; conditions: 37°C, 20 mM MES buffer, pH 6.5
insulin B chain [9] = assay: Insulin B chain as alternate substrate (competitive) inhibitor of Glut-Ala-Ala-Phe-MNA hydrolysis (Dixon plot); format: biochemical; conditions: insulin B chain 1 to 40 µM as competitive inhibitor of Glut-Ala-Ala-Phe-MNA hydrolysis by the enzyme form, 37°C, 20 mM MES, pH 6.5, ID50 converted to Ki
leu-ENK [10] = assay: Rate of leu-ENK hydrolysis (HPLC); format: biochemical; conditions: 64 µM leu-ENK, 37°C, 20 mM MES buffer, pH 6.5; disappearance of substrate by HPLC; at least triplicate
Aß1–40 [11] = assay: Time course of product peak accumulation from Aß1–40; format: biochemical; conditions: 24 µM Aß1–40, 37°C, 20 mM MES, pH 6.5; 0-360 min, HPLC peak area, linear phase
Procedure: Similar to the analysis conducted with insulin B chain, the linear rate of product accumulation was determined for each peak and normalized to the amount of protein in the reaction, Table 7 . Unlike the hydrolysis of insulin B chain, the hydrolysis of Aß1–40, even at the earliest time points, produced products resulting from multiple cleavage events. Out of the 12 identified product peaks, only 3 could be produced by a single cleavage. Rates for all cleavages were calculated and are given in Figure 4, B–D , but only the three putative primary cleavage sites can be compared.
(§1) Cleavage of physiological peptides was measured via reverse phase high performance liquid chromatography (HPLC) following incubation of the purified NEP or its mutants with 15 µM insulin B chain (Sigma Aldrich), 24 µM Aß1–40 (Anaspec), or 64 µM leu-ENK (Sigma) in 100 µL of 20 mM MES, pH 6.5, at 37°C. Reactions were run in triplicate. HPLC was carried out in a Vydac C4 column using a linear gradient from 0.1% trifluoroacetic acid (TFA) in 95% water, 5% acetonitrile to 0.1% TFA in 50% acetonitrile/water at a flow rate of 1 mL/min. Peptides and hydrolysis products were detected at 214 nm and quantified by measuring peak areas. Peptides obtained from HPLC were analyzed on an Applied Biosystems 4800 MALDI TOF/TOF Proteomics Analyzer at the University of Kentucky Proteomics core. This facility is supported in part by grant P20RR020171 from the NIH/NCRR.

insulin B chain [12] = assay: Time course of product peak accumulation from insulin B chain; format: biochemical; conditions: 15 µM insulin B chain, 37°C, 20 mM MES, pH 6.5; 0-180 min, HPLC peak area 214 nm, linear phase
Text: As a representative of the NEP^F563 and NEP^S546 mutants, we compared the cleavage profile of NEP^F563L and NEP^S546E to that of NEP using time course experiments, Figure 2 . By adjusting the amount of NEP mutant used, the rate of hydrolysis of insulin B chain by all NEP forms was virtually identical. […] Since rates were based on peak areas measured at 214 nm, which in turn is dependent on both the number of peptide bonds and the number of aromatic residues within a given peptide, only the observed rates of change for a particular peptide product can be compared between enzyme forms. A comparison of the rate of change of different peaks within the same enzyme form or between enzyme forms is not valid under our conditions of analysis.
as §1

leu-ENK [13] = assay: Dual substrate assay: leu-ENK hydrolysis in presence of insulin B chain; format: biochemical; conditions: 15 µM insulin B chain and 64 µM leu-ENK together, 37°C, 20 mM MES buffer, pH 6.5
Aß = conditions: transgenic mice; cited from earlier work
Text: Because of its multiple targets, NEP has been the focus of numerous studies attempting to modulate its activity for therapeutic purposes. One such target is the use of NEP to reduce Aß peptide levels in Alzheimer's disease, since the oligomerization of Aß has been linked to the etiology of this disease. […] In yet another application inhibitors of NEP were developed to block its “enkephalinase” activity to increase the concentra ...

Aß1–40: amyloid beta peptide 1–40, physiological substrate (Anaspec)
Additional unreported cleavage sites detected in Aß1–40 (NEP [1]): E^11-V^12, K^16-L^17, and L^17-V^18 | Cleavages of Aß1–40 detected by Leissring et al. (NEP [2]): Cleavages at K^28-G^29 and G^29-A^30 | Cleavages of Aß1–40 detected in two other studies and the current study (NEP [2]): G^9-Y^10, F^19-F^20, and A^30-I^31

glutaryl-Ala-Ala-Phe-4-methoxy-2-naphthylamide [Glut-Ala-Ala-Phe-MNA, fluorogenic peptide substrate]
Cleavage site (bond cleaved) (NEP [1]; NEP and mutants, 20 mM MES pH 6.5, 37°C): Ala-Phe peptide bond

CC(C)C[C@H](NP(=O)(O)O[C@@H]1O[C@@H](C)[C@H](O)[C@@H](O)[C@H]1O)C(=O)N[C@@H](Cc1c[nH]c2ccccc12)C(=O)O [phosphoramidon]
Inhibition of Glut-Ala-Ala-Phe-MNA hydrolysis ([3]; inhibitor at 100 µM): completely inhibited

O=C(O)CCNC(=O)[C@H](Cc1ccc(-c2ccccc2)cc1)NCP(=O)(O)O [CGS 24592]
Inhibition of Glut-Ala-Ala-Phe-MNA hydrolysis ([3]; inhibitor at 10 nM): completely inhibited

B1: NEP: secreted form of human NEP (shNEP) expressed as a C-terminal hexahistidine fusion protein (protein, UniProt P08473 52-750, looked up)
extracellular domain: YDDGICKSSDCIKSAARLIQNMDATTEPCTDFFKYACGGWLKRNVIPETSSRYGNFDILRDELEVVLKDVLQEPKTEDIVAVQKAKALYRSCINESAIDSRGGEPLLKLLPDIYGWPVATENWEQKYGASWTAEKAIAQLNSKYGKKVLINLFVGTDDKNSVNHVIHIDQPRLGLPSRDYYECTGIYKEACTAYVDFMISVARLIRQEERLPIDENQLALEMNKVMELEKEIANATAKPEDRNDPMLLYNKMTLAQIQNNFSLEINGKPFSWLNFTNEIMSTVNISITNEEDVVVYAPEYLTKLKPILTKYSARDLQNLMSWRFIMDLVSSLSRTYKESRNAFRKALYGTTSETATWRRCANYVNGNMENAVGRLYVEAAFAGESKHVVEDLIAQIREVFIQTLDDLTWMDAETKKRAEEKALAIKERIGYPDDIVSNDNKLNNEYLELNYKEDEYFENIIQNLKFSQSKQLKKLREKVDKDEWISGAAVVNAFYSSGRNQIVFPAGILQPPFFSAQQSNSLNYGGIGMVIGHEITHGFDDNGRNFNKDGDLVDWWTQQSASNFKEQSQCMVYQYGNFSWDLAGGQHLNGINTLGENIADNGGLGQAYRAYQNYIKKNGEEKLLPGLDLNHKQLFFLNFAQVWCGTYRPEYAVNSIKTDVHSPGNFRIIGTLQNSAEFSEAFHCRKNSYMNPEKKCRVW
modifications: extracellular domain C-terminal His6 tag
notes: secreted form of human NEP (shNEP) expressed as a C-terminal hexahistidine fusion protein
Insulin B Chain hydrolysis rate, dual substrate assay (insulin B chain [4]): 0.20 ± 0.04 pmol/min/ng | Insulin B Chain hydrolysis, activity relative to the uninhibited value (insulin B chain [4]; numbers in parenthesis): 0.23 | Rate of hydrolysis of Insulin B Chain (insulin B chain [5]): 0.86 ± 0.13 pmol/min/ng | Rate of hydrolysis of Aß1–40 (Aß1–40 [6]): 198 ± 12 fmol/min/ng | Ratio leu-ENK insulin B chain [7]: 6 and 5.8 | Specific Activity (Glut-Ala-Ala-Phe-MNA cleavage) ([8]; 100 µM Glut-Ala-Ala-Phe-MNA, fluorescence ex 340 nm, em 425 nm): 45.9 ± 2.5 pmol/min/ng | Km ([8]; Glut-Ala-Ala-Phe-MNA 20 to 500 µM, Michaelis-Menten fit): 51 ± 11 µM | Ki (insulin B chain [9]): 1900 ± 200 nM | Rate of hydrolysis of leu-ENK (leu-ENK [10]): 1.90 ± 0.23 pmol/min/ng | Accumulation rate of peak Aß 1–9 (single cleavage G^9-Y^10) (Aß1–40 [11]): 7 Δarea/min/ng | Accumulation rate of peak Aß 1–16 (single cleavage K^16-L^17) (Aß1–40 [11]): 22 Δarea/min/ng | Accumulation rate of peak Aß 1–17 (single cleavage L^17-V^18) (Aß1–40 [11]): 75 Δarea/min/ng | Accumulation rate of peak Aß 4–9 (dual cleavages A^3-F^4, G^9-Y^10) (Aß1–40 [11]): 10 Δarea/min/ng | Accumulation rate of peak Aß 4–16 (dual cleavages A^3-F^4, K^16-L^17) (Aß1–40 [11]): 7 Δarea/min/ng | Accumulation rate of peak Aß 4–17 (dual cleavages A^3-F^4, L^17-V^18) (Aß1–40 [11]): 9 Δarea/min/ng | Accumulation rate of peak Aß 10–16 (dual cleavages G^9-Y^10, K^16-L^17) (Aß1–40 [11]): 4 Δarea/min/ng | Accumulation rate of peak Aß 10–17 (dual cleavages G^9-Y^10, L^17-V^18) (Aß1–40 [11]): 18 Δarea/min/ng | Accumulation rate of peak Aß 12–17 (dual cleavages E^11-V^12, L^17-V^18) (Aß1–40 [11]): 3 Δarea/min/ng | Accumulation rate of peak Aß 20–28 (dual cleavages F^19-F^20, K^28-G^29) (Aß1–40 [11]): 11 Δarea/min/ng | Accumulation rate of peak Aß 20–29 (dual cleavages F^19-F^20, G^29-A^30) (Aß1–40 [11]): 16 Δarea/min/ng | Accumulation rate of peak Aß 20–30 (dual cleavages F^19-F^20, A^30-I^31) (Aß1–40 [11]): 34 Δarea/min/ng | Rate of accumulation of peak 1–5 (single cleavage H^5-L^6) (insulin B chain [12]): 59 Δarea/min/ng | Rate of accumulation of peak 1–10 (single cleavage H^10-L^11) (insulin B chain [12]): 163 Δarea/min/ng | Rate of accumulation of peak 1–11 (single cleavage L^11-V^12) (insulin B chain [12]): 88 Δarea/min/ng | Rate of accumulation of peak 1–14 (single cleavage A^14-L^15) (insulin B chain [12]): 167 Δarea/min/ng | Rate of accumulation of peak 1–16 (single cleavage Y^16-L^17) (insulin B chain [12]): 31 Δarea/min/ng | Rate of accumulation of peak 15–23 (two cleavages A^14-L^15, G^23-F^24) (insulin B chain [12]): 23 Δarea/min/ng | Rate of accumulation of peak 15–30 (single cleavage A^14-L^15) (insulin B chain [12]): 135 Δarea/min/ng | Rate of accumulation of peak 17–24 (two cleavages Y^16-L^17, F^24-F^25) (insulin B chain [12]): 33 Δarea/min/ng | Rate of accumulation of peak 17–30 (single cleavage Y^16-L^17) (insulin B chain [12]): 171 Δarea/min/ng | Rate of accumulation of peak 24–30 (single cleavage G^23-F^24) (insulin B chain [12]): 268 Δarea/min/ng | leu-ENK hydrolysis rate, dual substrate assay (leu-ENK [13]): 1.16 ± 0.06 pmol/min/ng | leu-ENK hydrolysis, activity relative to the uninhibited value (leu-ENK [13]; numbers in parenthesis): 0.61 | Effect of NEP expression on cognitive deficits typically attributed to AD (Aß): ameliorates cognitive deficits | Effect of NEP expression on level of Aß (Aß): decreases the level of Aß
